T1: Papain (UniProt P00784 134-345)
T1 chain: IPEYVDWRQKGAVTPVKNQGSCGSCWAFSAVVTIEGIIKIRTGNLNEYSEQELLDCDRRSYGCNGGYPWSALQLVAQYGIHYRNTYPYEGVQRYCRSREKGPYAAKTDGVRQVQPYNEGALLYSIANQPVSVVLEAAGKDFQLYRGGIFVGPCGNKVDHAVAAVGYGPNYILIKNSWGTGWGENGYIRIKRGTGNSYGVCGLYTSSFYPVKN

T2: Papain (UniProt P00784 134-345)
T2 construct: also called cysteine peptidase papain; cysteine protease papain; source: bought: Sigma
T2 sequence (looked up): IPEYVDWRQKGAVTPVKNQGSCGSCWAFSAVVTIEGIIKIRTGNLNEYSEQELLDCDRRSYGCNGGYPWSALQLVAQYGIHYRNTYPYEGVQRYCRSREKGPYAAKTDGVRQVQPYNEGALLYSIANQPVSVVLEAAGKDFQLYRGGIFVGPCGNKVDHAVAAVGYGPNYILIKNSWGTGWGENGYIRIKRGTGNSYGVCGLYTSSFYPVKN


Legend:
Papain [1] = molecular target: T1, Papain
Papain [2] = molecular target: T2, Papain; test: enzyme inhibition kinetics (Ki, Henderson equation for tight binding competitive inhibitors); papain 2.6 nM, different concentrations of inhibitor proteins, 0.1 M MES, 5 mM DTT, 0.1 mM Z-Phe-Arg-AMC, pH 6.5, 25°C, fluorescence 370/460 nm; conditions: both partners purified

| Binder | Ki (Papain [1]) [nM] | binding result (Papain [2]) |
| --- | --- | --- |
| CysC-MpL fusion protein (cystatin C, (GGGGS)3 linker, MpL) (other, Cystatin C without its 26-residue signal peptide (stated for unlinked CysC, assumed for the fusion). (GGGGS)3 linker kept because it joins the two domains. Vector start Met not added; MpL Met1 may be absent in the fusion. Dimeric forms were observed; copies given per chain.) SSPGKPPRLVGGPMDASVEEEGVRRALDFAVGEYNKASNDMYHSRALQVVRARKQIVAGVNYFLDVELGRTTCTKTQPNLDNCPFHDQPHLKRKAFCSFQIYAVPWQGTMTLSKSTCQDAGGGGSGGGGSGGGGSMSTQVSSGQTYKITNVKAGTVIDLSGEDNKSIIGYPYHSGKNQQWTFNWTGKAWTLRSASSGSYLGIEGTPADGTRLVAVNDPFEWHIWRDEANENAFRIFVPFTNYNLDLSGYGDTTPGTPVQLWWTWEGLHQTWTIDRP | 41 |  |
| Clt-MpL fusion protein (clitocypin, (GGGGS)3 linker, MpL) (other, Clitocypin species taken from the candidate for the printed accession Q3Y9I6; MpL species is printed. (GGGGS)3 linker kept because it joins the two domains. MpL Met1 may be absent in the fusion. Dimeric forms were observed; copies given per chain.) MASLEDGTYRLRAVTTSNPDPGVGGEYATVEGARQPVKAEPSTPPFFERQIWQVTRNSDGQSTIKYQGLNAPFEYGFSYDQLEQNAPVIAGDPKEYILQLVPSTTDVYIIRAPIQRVGVDVEVGVQGNNLVYKFFPVDGSGGDRPAWRFTREGGGGSGGGGSGGGGSMSTQVSSGQTYKITNVKAGTVIDLSGEDNKSIIGYPYHSGKNQQWTFNWTGKAWTLRSASSGSYLGIEGTPADGTRLVAVNDPFEWHIWRDEANENAFRIFVPFTNYNLDLSGYGDTTPGTPVQLWWTWEGLHQTWTIDRP | 161 |  |
| Recombinant clitocypin (Clt) (natural protein, UniProt Q3Y9I6 1-152, looked up, also called rClt; unlinked Clt; source: E. coli, purified as described [19]) MASLEDGTYRLRAVTTSNPDPGVGGEYATVEGARQPVKAEPSTPPFFERQIWQVTRNSDGQSTIKYQGLNAPFEYGFSYDQLEQNAPVIAGDPKEYILQLVPSTTDVYIIRAPIQRVGVDVEVGVQGNNLVYKFFPVDGSGGDRPAWRFTRE | 60.8 | binds |
| Recombinant cystatin C (CysC) (natural protein, human, UniProt P01034 27-146, looked up, Human cystatin C without its signal peptide of 26 amino acids; It was cloned through NdeI and BamHI into pET11a, so an initiator methionine is likely; also called unlinked CysC) SSPGKPPRLVGGPMDASVEEEGVRRALDFAVGEYNKASNDMYHSRALQVVRARKQIVAGVNYFLDVELGRTTCTKTQPNLDNCPFHDQPHLKRKAFCSFQIYAVPWQGTMTLSKSTCQDA | 85.5 | binds |
